According to US20210155689A1 (SHANGHAI PHARMAEXPLORER, published 2021):
Changes are numbered by the printed parent chain.

Tests used:
[1] = molecular target: T1, monkey LAG-3 on cells (HEK293-cLAG-3 stable cell line) (monkey, UniProt P18627 24-525 (human entry)); experiment: FACS, HEK293-cLAG-3, antibody 0.013 nM
T1 construct: Full-length monkey (Chinese monkey) LAG-3 gene expressed on HEK293 cells
T1 chain: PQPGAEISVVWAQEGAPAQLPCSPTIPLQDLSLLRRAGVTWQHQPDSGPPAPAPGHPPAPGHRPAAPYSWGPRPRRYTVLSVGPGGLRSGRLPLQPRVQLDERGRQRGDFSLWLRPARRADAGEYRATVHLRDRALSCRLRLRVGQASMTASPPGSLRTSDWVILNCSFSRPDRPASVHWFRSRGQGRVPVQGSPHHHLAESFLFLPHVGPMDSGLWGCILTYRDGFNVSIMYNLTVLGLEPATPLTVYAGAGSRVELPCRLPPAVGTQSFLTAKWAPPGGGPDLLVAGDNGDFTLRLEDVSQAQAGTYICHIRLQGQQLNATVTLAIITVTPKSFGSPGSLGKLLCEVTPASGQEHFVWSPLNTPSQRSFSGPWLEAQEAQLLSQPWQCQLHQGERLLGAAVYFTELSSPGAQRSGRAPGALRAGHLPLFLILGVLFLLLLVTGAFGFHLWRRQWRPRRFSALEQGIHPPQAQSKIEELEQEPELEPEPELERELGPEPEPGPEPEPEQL
From the text: (§1) The pIRES plasmid with the monkey-derived full-length gene was transfected into the HEK293 cell line to construct a HEK293 stable cell line containing monkey LAG-3 (herein referred to as HEK293-cLAG-3 stable cell line). The HEK293-hLAG-3 stable cell line and HEK293-cLAG-3 stable cell line were expanded in a T-75 cell culture flask to a 90% confluence. The medium was aspirated, and the cells were washed with HBSS (Hanks' Balanced Salt Solution) 1-2 times, then treated with a enzyme-free cell dissociation fluid (Versene solution: Life technology) and the cells were collected. The cells were washed with HBSS buffer for 1-2 times. After counted, the cells were diluted with HBSS to 1-2×10⁶ cells per ml, added with 1% goat serum blocking solution, incubated on ice for 20-30 minutes, and then washed with HBSS for 2 times by centrifugation. The collected cells were suspended in the FACS buffer (HBSS+1% BSA) to 2×10⁶ cells/ml, added as 100 microliters per well to a 96-well FACS reaction plate, added with 100 microliters per well of the antibody sample to be tested, incubated on ice for 1-2 hours. The plate was washed twice with the FACS buffer by centrifugation, added with 100 microliters of fluorescent (Alexa 488)-labeled secondary antibodies per well, and incubated on ice for 0.5-1.0 hours. The plate was washed 2-3 times with FACS buffer by centrifugation, added with 100 μl fixative solution (4% Paraformaldehyde) per well to suspend the cells. 5-10 minutes later, it was washed 1-2 times with FACS buffer by centrifugation. The cells were suspended with 100 microliters of FACS buffer, FACS (FACSCalibur, BD) was used for detection and the results were analyzed.

[2] = molecular target: T1, monkey LAG-3 on cells (HEK293-cLAG-3 …); experiment: FACS, HEK293-cLAG-3, antibody 200.000 nM
From the text: as §1

[3] = molecular target: T1, monkey LAG-3 on cells (HEK293-cLAG-3 …); experiment: FACS, HEK293-cLAG-3, antibody 8.000 nM
From the text: as §1

[4] = molecular target: T2, mouse LAG-3 protein with hFc tag (mLAG-3-hFc protein) (mouse; human, UniProt Q61790 24-442); experiment: ELISA, mLAG-3-hFc coated; 0.0667 nM
T2 construct: Made in HEK293 cells; also called mouse LAG-3 extracellular domain protein; not shown: human IgG Fc fragment (hFc) of the pCpC vector
T2 sequence: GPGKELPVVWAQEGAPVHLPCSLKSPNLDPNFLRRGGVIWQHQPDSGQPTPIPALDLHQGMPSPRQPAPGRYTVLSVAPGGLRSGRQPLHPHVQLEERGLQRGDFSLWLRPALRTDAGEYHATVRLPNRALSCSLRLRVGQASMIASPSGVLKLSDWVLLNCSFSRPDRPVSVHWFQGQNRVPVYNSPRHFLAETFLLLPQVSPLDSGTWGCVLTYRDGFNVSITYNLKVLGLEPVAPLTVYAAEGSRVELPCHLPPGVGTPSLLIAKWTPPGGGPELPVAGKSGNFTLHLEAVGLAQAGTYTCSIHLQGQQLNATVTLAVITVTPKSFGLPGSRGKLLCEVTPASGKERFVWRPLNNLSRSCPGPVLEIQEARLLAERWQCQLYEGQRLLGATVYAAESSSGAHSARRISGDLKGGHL
Experimental: The plate was sealed with plastic film and incubated overnight at 4° C. The plate was washed 2 times with the plate washing solution (PBS+0.01% Tween20) on the next day, and added with the blocking solution (PBS+0.01% Tween20+1% BSA) and blocked at room temperature for 1-2 hours. The blocking solution was poured out, and the plate was added with 50-100 μl of the antibody sample to be tested to each well, incubated at 37° C. for 1-2 hours, and washed 2-3 times with a plate washing solution (PBS+0.01% Tween20). HRP (horseradish peroxidase) labeled secondary antibody was added, and the plate was incubated at 37° C. for 1-2 hours, and washed 2-3 times with a plate washing solution (PBS+0.01% Tween20). 100 μl of TMB substrate was added to each well. After incubated at room temperature for 15-30 minutes, the plate was added with 100 μl of stop solution (1.0N HCl) to each well.

B1: 105F1E10 mouse-human chimeric antibody (antibody, V domains shown)
VH: EVQLQQSGPELVKPGASVKMSCRASGYTFTDFKMHWMKQSHGKSLEWIGYIAPNNGGTAYNQKFRGKATLTVNESSNTAYMELRSLTSEDSAVYYCVDWDDVDYWGQGTTLTVSS
VL: DIKMTQSPSSMYASLGERVTITCKASQDINSYLSWFQQKSGKSPKTLIYRANRLVDGVPSRFSGSGSGQDYSLTISSLEYEDMGIYYCLQYVEFPLTFGAGTKLELK
notes: also called mAb009-105F1E10
Binder B1 has a Mean fluorescence intensity [1] of 2.89, a Mean fluorescence intensity [2] of 94.5 and a Mean fluorescence intensity [3] of 37.9.

B2: 105F1E10 (LAG-3 mouse-human chimeric antibody) (antibody, V domains shown)
VH: B1 VH
VL: B1 VL
Binder B2 has an OD450 [4] of 0.08 OD450.

B3: 405B8H3 mouse-human chimeric antibody (antibody, V domains shown)
VH: QVQLQQSGAELVRPGASVTLSCKASGYTFTDYEMHWVKQTPVHGLEWIGATDPETGNSAYNQKFKGKAIMTADKSSSTAYMELRSLTSEDSAVYYCISTGWNDWGQGTSLTVSS
VL: B1 VL with S40P, N52D, V55L, E81G, V92D, L96Y, A100G, L106I
notes: also called mAb103-405B8H3
Work on B3 yielded a Mean fluorescence intensity [1] of 3.52, a Mean fluorescence intensity [2] of 108 and a Mean fluorescence intensity [3] of 69.3.

B4: 405B8H3 (LAG-3 mouse-human chimeric antibody) (antibody, V domains shown)
VH: B3 VH
VL: B1 VL with S40P, N52D, V55L, E81G, V92D, L96Y, A100G, L106I
notes: also called mouse-human chimeric antibody 405B8H3
For B4, the OD450 [4] was 0.08 OD450.

B5: 409B11E12 mouse-human chimeric antibody (antibody, V domains shown)
VH: B3 VH with P41T, G56S, N57Y, M70L, S98A
VL: B1 VL with I2L, S40P, V55L, V92D, L96Y, A100G, L106I
notes: also called mAb104-409B11E12
B5 gave a Mean fluorescence intensity [1] of 3.39, a Mean fluorescence intensity [2] of 114 and a Mean fluorescence intensity [3] of 73.1.

B6: 409D4E10 mouse-human chimeric antibody (antibody, V domains shown)
VH: B3 VH with Y27N, G56D, S58T, M70L, A72T, S98T, T99S
VL: B1 VL with S40P, V55L, V92N, L96Y, A100G, L106I
notes: also called mAb112-409D4E10
B6 was tested, and the Mean fluorescence intensity [1] was 3.36, the Mean fluorescence intensity [2] was 103 and the Mean fluorescence intensity [3] was 61.5.

B7: 409B11E12 (LAG-3 mouse-human chimeric antibody) (antibody, V domains shown)
VH: B3 VH with P41T, G56S, N57Y, M70L, S98A
VL: B1 VL with I2L, S40P, V55L, V92D, L96Y, A100G, L106I
For B7, the OD450 [4] was 0.09 OD450.

B8: 409D4E10 (LAG-3 mouse-human chimeric antibody) (antibody, V domains shown)
VH: B3 VH with Y27N, G56D, S58T, M70L, A72T, S98T, T99S
VL: B1 VL with S40P, V55L, V92N, L96Y, A100G, L106I
B8 showed an OD450 [4] of 0.13 OD450.

B9: 556F6B8 mouse-human chimeric antibody (antibody, V domains shown)
VH: RVQLKQSGPGLVQPSQSLSITCTVSGFSLIKYGVHWVRQSPGEGLEWLGVIWRGGITDYNAAFMSRLSITKDNSKSQVFFKMNSLQADDTAIYYCAKWDGPLAMDYWGQGTSVTVSS
VL: DIVMTQSHKFLSTSVGDRVSITCKASQDVGTTVAWYQQKPGQSPKLLIYWASTRHTGVPDRFTGSGSGTDFTLTISNVQSEDLADYFCQQYSSYPYTFGGGTKLEIK
notes: also called mAb123-556F6B8; 556F8B8
With B9 the Mean fluorescence intensity [1] was 3.46, the Mean fluorescence intensity [2] was 90.5 and the Mean fluorescence intensity [3] was 42.5.

B10: 556F6B8 (LAG-3 mouse-human chimeric antibody) (antibody, V domains shown)
VH: B9 VH
VL: B9 VL
notes: also called 556F8B8
B10 showed an OD450 [4] of 0.11 OD450.
